According to US20090166224A1:

Columns and labels:
[1] = target: Alpha-2HS-glycoprotein in neuraminidase-treated serum (human) (UniProt P02765); experiment: neuraminidase-treated serum on M-LAC column, displacer fraction, LC-MS/MS; smaller rank = more abundant
[2] = target: Beta-2-glycoprotein in neuraminidase-treated serum (human) (UniProt P02749); experiment: as above
[3] = target: asialotransferrin (human) (UniProt P02787); experiment: as above
[4] = target: IG ALPHA-1 CHAIN C REGION (human) (UniProt P01876); experiment: human serum on M-LAC column, Jacalin displacer fraction, LC-MS/MS; smaller rank = more abundant
[5] = target: IG ALPHA-1 CHAIN C REGION (human) (UniProt P01876); experiment: human serum on Con A/WGA/Jacalin column, lectin-specific displacer fraction, LC-MS/MS; grade = SEQUEST rank group (+ = ranks 1-5, ++++ = 16-20)
SERO… (human) [6] = target: SERO… (human) (UniProt P02787); experiment: as above
[7] = target: ALPHA-2-HS-GLYCOPROTEIN (human) (UniProt P02765); experiment: as above
[8] = target: Alpha-1-acid-glycoprotein (human) (UniProt P02763); experiment: human serum on M-LAC column, displacer fraction, LC-MS/MS; smaller rank = more abundant
[9] = target: Beta-2-glycoprotein (human) (UniProt P02749); experiment: as above
SERO… (human) [10] = target: SERO… (human) (UniProt P02787); experiment: as above
CERULOPLASMIN (human) [11] = target: CERULOPLASMIN (human) (UniProt P00450); experiment: as above
[12] = target: APOLIPOPROTEIN A-I (human) (UniProt P02647); experiment: as above
[13] = target: ALPHA-2-HS-GLYCOPROTEIN (human) (UniProt P02765); experiment: as above
[14] = target: asialotransferrin (human) (UniProt P02787); experiment: neuraminidase-treated serum on M-LAC column, displacer fraction, extracted ion chromatogram of peptide …
[15] = target: Pregnancy zone protein in fucosidase-treated serum (human) (UniProt P20742); experiment: fucosidase-treated serum on M-LAC column, displacer fraction, LC-MS/MS; smaller rank = more abundant
[16] = target: Inter-alpha-trypsin inhibitor in fucosidase-treated serum (human); experiment: as above
… ZONE PROTEIN (human) [17] = target: … ZONE PROTEIN (human) (UniProt P20742); experiment: human serum on Con A/WGA/Jacalin column, lectin-specific displacer fraction, LC-MS/MS; grade = SEQUEST rank group (+ = ranks 1-5, ++++ = 16-20)
CERULOPLASMIN (human) [18] = target: CERULOPLASMIN (human) (UniProt P00450); experiment: as above
[19] = target: APOLIPOPROTEIN A-I (human) (UniProt P02647); experiment: as above
[20] = target: Inter-alpha-trypsin inhibitor (human); experiment: human serum on M-LAC column, displacer fraction, extracted ion chromatogram of peptide …
HAPTOGLOBIN-2 (human) = HAPTOGLOBIN-2 (human) (UniProt P00738); experiment: as above
[21] = target: Pregnancy zone protein in fucosidase-treated serum (human) (UniProt P20742); experiment: fucosidase-treated serum on M-LAC column, displacer fraction, extracted ion chromatogram of peptide … (so in the source)
… ZONE PROTEIN (human) [22] = target: … ZONE PROTEIN (human) (UniProt P20742); experiment: human serum on M-LAC column, displacer fraction, LC-MS/MS; smaller rank = more abundant
[23] = target: Inter-alpha-trypsin inhibitor (human); experiment: as above
[24] = target: Inter-alpha-trypsin inhibitor in fucosidase-treated serum (human); experiment: fucosidase-treated serum on M-LAC column, displacer fraction, extracted ion chromatogram of peptide …

Sequence of Pregnancy zone protein in fucosidase-treated serum (human) (P20742 26-1482 limits assumed): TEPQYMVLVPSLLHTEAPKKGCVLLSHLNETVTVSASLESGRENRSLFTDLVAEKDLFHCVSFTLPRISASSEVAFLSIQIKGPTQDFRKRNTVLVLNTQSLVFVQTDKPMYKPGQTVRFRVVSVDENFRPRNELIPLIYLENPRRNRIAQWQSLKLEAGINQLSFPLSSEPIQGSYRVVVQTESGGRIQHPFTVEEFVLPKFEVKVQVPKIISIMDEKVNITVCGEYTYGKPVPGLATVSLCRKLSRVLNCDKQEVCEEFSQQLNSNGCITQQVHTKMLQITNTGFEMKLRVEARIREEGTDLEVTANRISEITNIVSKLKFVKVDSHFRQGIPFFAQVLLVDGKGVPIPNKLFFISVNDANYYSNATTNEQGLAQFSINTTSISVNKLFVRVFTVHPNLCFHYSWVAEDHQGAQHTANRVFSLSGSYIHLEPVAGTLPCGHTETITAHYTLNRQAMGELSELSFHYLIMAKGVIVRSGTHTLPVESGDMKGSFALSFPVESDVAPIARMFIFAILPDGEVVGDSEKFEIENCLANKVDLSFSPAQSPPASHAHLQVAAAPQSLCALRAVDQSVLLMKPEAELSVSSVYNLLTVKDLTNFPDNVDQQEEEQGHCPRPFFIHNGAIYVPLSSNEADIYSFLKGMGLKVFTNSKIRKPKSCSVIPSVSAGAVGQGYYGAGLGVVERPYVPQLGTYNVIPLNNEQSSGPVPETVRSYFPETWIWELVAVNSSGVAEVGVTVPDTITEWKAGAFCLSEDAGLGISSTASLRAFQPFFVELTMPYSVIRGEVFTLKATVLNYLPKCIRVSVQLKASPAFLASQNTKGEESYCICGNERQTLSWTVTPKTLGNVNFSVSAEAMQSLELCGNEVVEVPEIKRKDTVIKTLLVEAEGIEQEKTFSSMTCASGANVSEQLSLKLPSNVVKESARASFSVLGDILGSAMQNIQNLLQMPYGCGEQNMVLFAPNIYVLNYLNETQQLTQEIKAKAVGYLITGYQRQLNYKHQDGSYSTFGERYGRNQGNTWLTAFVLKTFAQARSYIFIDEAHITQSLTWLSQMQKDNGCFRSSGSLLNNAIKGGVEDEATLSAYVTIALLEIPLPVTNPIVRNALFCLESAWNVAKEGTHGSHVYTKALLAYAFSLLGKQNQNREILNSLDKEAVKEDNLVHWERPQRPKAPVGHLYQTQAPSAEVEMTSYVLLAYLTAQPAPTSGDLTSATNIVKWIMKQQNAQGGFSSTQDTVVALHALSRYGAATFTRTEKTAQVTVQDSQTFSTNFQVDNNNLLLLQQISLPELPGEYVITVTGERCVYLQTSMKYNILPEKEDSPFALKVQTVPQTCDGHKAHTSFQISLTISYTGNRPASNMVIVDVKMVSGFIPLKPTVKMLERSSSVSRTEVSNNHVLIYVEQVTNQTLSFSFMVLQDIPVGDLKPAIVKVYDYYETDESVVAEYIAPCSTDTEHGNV
Sequence of … ZONE PROTEIN (human) (P20742 26-1482 limits assumed): as above
Sequence of UniProt P00450 (P00450 20-1065 limits assumed): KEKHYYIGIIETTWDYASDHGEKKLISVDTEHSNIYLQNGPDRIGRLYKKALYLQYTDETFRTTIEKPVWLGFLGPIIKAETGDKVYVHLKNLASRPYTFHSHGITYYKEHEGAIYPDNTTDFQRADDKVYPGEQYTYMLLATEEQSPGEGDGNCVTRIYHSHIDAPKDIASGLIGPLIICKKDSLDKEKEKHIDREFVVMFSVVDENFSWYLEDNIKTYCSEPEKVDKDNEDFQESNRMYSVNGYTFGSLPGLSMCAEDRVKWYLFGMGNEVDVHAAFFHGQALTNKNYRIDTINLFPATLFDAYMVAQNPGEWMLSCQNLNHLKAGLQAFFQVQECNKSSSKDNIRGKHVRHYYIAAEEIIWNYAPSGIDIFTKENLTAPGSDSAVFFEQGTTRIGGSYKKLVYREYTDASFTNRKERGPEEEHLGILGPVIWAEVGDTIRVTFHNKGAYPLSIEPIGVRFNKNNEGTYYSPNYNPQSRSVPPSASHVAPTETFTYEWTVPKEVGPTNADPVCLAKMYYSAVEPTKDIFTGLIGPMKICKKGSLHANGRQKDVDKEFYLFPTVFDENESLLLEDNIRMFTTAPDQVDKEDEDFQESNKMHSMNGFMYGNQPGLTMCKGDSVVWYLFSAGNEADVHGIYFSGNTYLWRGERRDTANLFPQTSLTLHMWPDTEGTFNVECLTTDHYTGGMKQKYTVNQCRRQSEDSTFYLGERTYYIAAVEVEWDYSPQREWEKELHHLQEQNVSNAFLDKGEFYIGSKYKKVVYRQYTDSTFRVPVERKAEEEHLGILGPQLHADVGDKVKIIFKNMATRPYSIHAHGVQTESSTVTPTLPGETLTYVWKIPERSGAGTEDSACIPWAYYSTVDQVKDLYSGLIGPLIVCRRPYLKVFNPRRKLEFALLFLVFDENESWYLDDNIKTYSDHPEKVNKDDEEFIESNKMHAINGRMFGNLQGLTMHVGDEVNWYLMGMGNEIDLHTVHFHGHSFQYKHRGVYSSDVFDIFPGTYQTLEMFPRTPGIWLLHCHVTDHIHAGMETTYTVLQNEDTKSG
Sequence of UniProt P02765 (P02765 19-300 limits assumed, chain 1 of 2): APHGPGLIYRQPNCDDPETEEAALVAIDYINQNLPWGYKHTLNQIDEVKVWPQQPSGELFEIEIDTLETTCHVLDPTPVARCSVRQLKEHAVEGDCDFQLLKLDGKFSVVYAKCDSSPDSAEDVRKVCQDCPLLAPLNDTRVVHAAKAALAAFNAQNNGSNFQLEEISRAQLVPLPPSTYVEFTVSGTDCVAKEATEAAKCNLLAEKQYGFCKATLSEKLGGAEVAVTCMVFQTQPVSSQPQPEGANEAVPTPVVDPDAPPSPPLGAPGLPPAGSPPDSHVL
Sequence of UniProt P02765 (P02765 341-367 limits assumed, chain 2 of 2): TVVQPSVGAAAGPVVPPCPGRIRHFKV
Sequence of Alpha-1-acid-glycoprotein (human) (P02763 19-201 limits assumed): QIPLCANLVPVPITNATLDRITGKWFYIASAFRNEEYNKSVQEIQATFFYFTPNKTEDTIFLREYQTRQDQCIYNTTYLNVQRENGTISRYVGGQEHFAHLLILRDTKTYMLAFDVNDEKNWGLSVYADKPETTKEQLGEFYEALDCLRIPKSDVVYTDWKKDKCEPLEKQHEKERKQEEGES
Sequence of UniProt P02647 (P02647 25-267 limits assumed): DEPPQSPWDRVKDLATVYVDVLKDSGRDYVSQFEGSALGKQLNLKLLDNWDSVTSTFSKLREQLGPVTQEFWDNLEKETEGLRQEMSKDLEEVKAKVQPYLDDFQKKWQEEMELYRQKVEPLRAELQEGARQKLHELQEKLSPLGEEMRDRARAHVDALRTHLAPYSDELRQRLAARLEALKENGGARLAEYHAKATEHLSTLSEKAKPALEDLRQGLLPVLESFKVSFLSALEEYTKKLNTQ
Sequence of Beta-2-glycoprotein (human) (P02749 20-345 limits assumed): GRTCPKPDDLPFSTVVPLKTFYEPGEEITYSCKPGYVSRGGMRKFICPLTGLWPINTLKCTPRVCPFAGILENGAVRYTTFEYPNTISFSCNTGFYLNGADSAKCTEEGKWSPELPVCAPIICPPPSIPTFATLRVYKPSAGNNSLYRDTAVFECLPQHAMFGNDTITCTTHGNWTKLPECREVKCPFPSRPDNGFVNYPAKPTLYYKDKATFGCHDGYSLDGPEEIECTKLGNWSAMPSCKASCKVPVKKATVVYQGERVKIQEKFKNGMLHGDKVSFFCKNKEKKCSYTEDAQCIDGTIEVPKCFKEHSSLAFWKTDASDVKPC
Sequence of SERO… (human) (P02787 20-698 limits assumed): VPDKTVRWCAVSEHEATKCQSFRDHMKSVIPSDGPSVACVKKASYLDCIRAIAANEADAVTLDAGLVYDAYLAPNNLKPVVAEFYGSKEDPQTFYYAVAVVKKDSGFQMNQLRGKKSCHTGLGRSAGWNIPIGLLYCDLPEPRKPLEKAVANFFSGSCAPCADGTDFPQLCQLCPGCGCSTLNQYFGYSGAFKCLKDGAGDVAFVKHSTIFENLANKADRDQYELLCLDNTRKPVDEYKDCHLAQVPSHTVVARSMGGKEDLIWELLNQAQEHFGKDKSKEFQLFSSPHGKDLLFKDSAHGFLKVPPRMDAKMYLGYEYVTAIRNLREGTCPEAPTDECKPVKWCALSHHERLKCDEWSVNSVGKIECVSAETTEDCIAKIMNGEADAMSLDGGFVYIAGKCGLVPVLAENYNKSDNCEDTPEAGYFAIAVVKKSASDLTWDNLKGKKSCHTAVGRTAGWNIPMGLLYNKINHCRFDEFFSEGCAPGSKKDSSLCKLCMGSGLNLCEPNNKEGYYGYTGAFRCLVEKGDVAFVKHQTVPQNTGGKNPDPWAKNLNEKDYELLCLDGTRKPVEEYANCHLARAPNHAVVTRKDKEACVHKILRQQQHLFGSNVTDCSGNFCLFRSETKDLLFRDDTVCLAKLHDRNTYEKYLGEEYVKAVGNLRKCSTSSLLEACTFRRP
Sequence of asialotransferrin (human) (P02787 20-698 limits assumed): as above
Sequence of Inter-alpha-trypsin inhibitor in fucosidase-treated serum (human) (P19823 55-702): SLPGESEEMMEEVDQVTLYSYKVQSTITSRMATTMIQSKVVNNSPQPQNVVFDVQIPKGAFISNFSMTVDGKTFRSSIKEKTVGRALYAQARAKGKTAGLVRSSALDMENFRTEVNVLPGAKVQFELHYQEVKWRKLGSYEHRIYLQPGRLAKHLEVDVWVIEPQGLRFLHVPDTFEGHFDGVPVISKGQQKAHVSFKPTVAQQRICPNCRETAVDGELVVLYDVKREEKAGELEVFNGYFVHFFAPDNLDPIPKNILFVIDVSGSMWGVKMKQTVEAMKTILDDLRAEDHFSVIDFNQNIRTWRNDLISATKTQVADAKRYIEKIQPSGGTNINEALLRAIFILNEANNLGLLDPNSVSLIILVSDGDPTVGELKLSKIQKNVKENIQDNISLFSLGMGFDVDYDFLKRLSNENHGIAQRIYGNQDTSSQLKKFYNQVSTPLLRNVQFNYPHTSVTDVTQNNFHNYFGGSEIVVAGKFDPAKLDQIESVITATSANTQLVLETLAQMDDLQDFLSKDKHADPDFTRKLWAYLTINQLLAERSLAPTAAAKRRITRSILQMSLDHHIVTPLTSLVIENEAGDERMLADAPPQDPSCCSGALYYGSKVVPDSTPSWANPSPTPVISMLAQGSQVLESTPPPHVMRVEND

Substance	SEQUEST rank in displacer fraction [1]	SEQUEST rank in displacer fraction [2]	SEQUEST rank in displacer fraction [3]	SEQUEST rank in displacer fraction [8]	SEQUEST rank in displacer fraction [9]	SEQUEST rank in displacer fraction (SERO… (human) [10])	SEQUEST rank in displacer fraction (CERULOPLASMIN (human) [11])	SEQUEST rank in displacer fraction [12]	SEQUEST rank in displacer fraction [13]	SEQUEST rank in displacer fraction [15]	peptide peak area in displacer fraction [21]	SEQUEST rank in displacer fraction (… ZONE PROTEIN (human) [22])	also measured
Jacalin lectin, agarose-bound (from UniProt P18670 1-133; P18671 1-20)	7	23	1	21	20	2	24	4	14	–	–	–	SEQUEST rank in displacer fraction [4]: 1; SEQUEST ranking (relative abundance in the Jacalin displacement fraction) [5]: 1 to 5 rank; SEQUEST ranking (relative abundance in the Jacalin displacement fraction) (SERO… (human) [6]): 16 to 20 rank; SEQUEST ranking (relative abundance in the Jacalin displacement fraction) [7]: 6 to 10 rank; peptide peak area in displacer fraction ([14]; peptide at M/Z 530.2): 2.4e+07 counts; peptide peak area in displacer fraction ([14]; peptide at M/Z 790.1): 8.3e+06 counts
Concanavalin A (Con A), agarose-bound (from UniProt P02866 30-281)	31	24	2	33	20	2	14	19	32	25	1.6e+07 counts	34	SEQUEST rank in displacer fraction [16]: 13; SEQUEST ranking (relative abundance in the Con A displacement fraction) (… ZONE PROTEIN (human) [17]): 16 to 20 rank; SEQUEST ranking (relative abundance in the Con A displacement fraction) (SERO… (human) [6]): 1 to 5 rank; SEQUEST ranking (relative abundance in the Con A displacement fraction) (CERULOPLASMIN (human) [18]): 16 to 20 rank; SEQUEST ranking (relative abundance in the Con A displacement fraction) [19]: 11 to 15 rank; peptide peak area in displacer fraction [20]: 500000 counts; peptide peak area in displacer fraction (HAPTOGLOBIN-2 (human)): 4e+07 counts; SEQUEST rank in displacer fraction [23]: 22; peptide peak area in displacer fraction [24]: 0 counts
wheat germ agglutinin (WGA), agarose-bound (from UniProt P10968 27-197)	–	–	–	7	52	19	8	10	81	17	5.2e+06 counts	7	SEQUEST ranking (relative abundance in the WGA displacement fraction) (… ZONE PROTEIN (human) [17]): 6 to 10 rank; SEQUEST ranking (relative abundance in the WGA displacement fraction) [7]: 11 to 15 rank
